In the domain aggregation screens of Martell et al. (2025):

Assay: soluble fraction after stress (log2 fold change); higher = more stays soluble; pooled small domains, quantitative proteomics
Details: stress: pH 4
Method in brief: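 Pooled custom libraries of small protein domains were stressed at pH 4 and then measured by high-throughput quantitative proteomics. The fold change in the amount of each domain that stays soluble after the acid stress serves as a measure of aggregation propensity. Fold changes are given on a log2 scale, and higher values mean more of the domain stayed soluble.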

Row | Sequence | soluble fraction (log2)
1 | HMNVVGAKGRIIKISSSEEKMAVAEIEGHGEWNIRTNSEIELFVGKSVEVIEMKGNYLLVNQI | -1.81
2 | HMNVWESVDLRQEQHEAKRRLILKQAALLFADRGFHETTIDQIAEALNVTKPTIYYYIESKEDLLYQVA | -0.369
3 | HMNWQLITDPKELRELVQKTIADNEAGTSRLREGDMGPLEFLTGIIMKKTRGLADPTMVKALLKEELNI | 0.0177
4 | HMNYEFLEKIGFSSNEAKVYGTLIKHKVLNGYEIAKLSGVARSLVYEVINRLVAKGAVIRIDGEPNFYKP | -0.236
5 | HMNYHDTLSYLMDAFGGADNLQKLLGVGPSALSNYRRREHLPLNQARKLSNIAPEFGFNLDPYTLKISVID | -0.588
6 | HMNYKLESYLKKVDDQLNFIPVSDKADILSELKNTFYERLLNGQTEEEILDEMESPRELALSYMSES | -1.38
7 | HMNYTYTVPEGIRYLRADKALALAFPDHSRTALQRAFDSGLVTLRGVAIKRDQSVTALDTLEFAMPDI | -0.675
8 | HMNYVFVLNEHGVRQTSYVVGLHADTLEKTEKLAKQTYPTSTIISGDSEMQSQFISGKAYVNGEFVDP | -0.192
9 | HMPAFWILAVLAGGRRHGYQIMREAALSSEGLVTLKPTTLYAALERLERDGAIQQDGEEIVDGRVRRYYRI | -0.305
10 | HMPAKDAEFTAFVRSATPTLTRTAYLLTGDRETASDLVQEAFVRTYLAWRRVRPEEATAYTRRVLVN | 0.22
11 | HMPAPMISIQLNGEPRNVQPGISIAALVREIGLEPAKVAVERNREIVPRSTLGDVLIEAGDQLEIVHFVG | 0.0156
12 | HMPAQPEPYNNLARLYSAQGKLDQAASLLRAGLYTDPAYRALFDNLTRIYAEQAARSLSAALD | -0.879
13 | HMPASDPNEKQILRFLTEHQVITRKETQALLDVSQSTAGRVLKAMVDNGQIKQLGGSRNTRYELPM | 0.149
14 | HMPASGISSEIIYDGILIEENLRQLKKDKAWLMDQLKKKGISSVSEVFLATLNKGGSLYIDKY | -0.0537
15 | HMPASVSAIRKYLGGGSFKGVGPALAKRIVDAFGEYTIETIENDPKQLAKVKGVSEKMALEINTQ | 0.112
16 | HMPAYYQKEAVLDGRASVFAYERDPSSWYFKQLIPGTKKYRTKKIQGATTLEQAKSQALDIALGLRDEP | 0.243
17 | HMPDDHFIRGYVTAVLEQVLKVPSIQVEVERGVVILRGDLPGEERQELLDAVSRIHGVARVEYIPL | -0.281
18 | HMPDLSGEEQQIVDILAQRGNLQINTLVVETDIPVHKMNAILFELEMKGVVRVLAGGMYQLL | -0.561
19 | HMPDPLVEIRSAVHSNYAGMIAMLGADNRVYLGREEHYSYQDGQPGQYDNRDGSLLFVSDQPDIYYFL | -1.21
20 | HMPEAITLRDLKTYSKQAASGYLDDHQLVLVEKEAHSEDVPEGQVIKQKPGAGASVKPGDKVEVTFSLGPE | 0.22
21 | HMPEKKKYGDFVSMTEEEYGKLVSEYGQEAAKRMVEILNNYKGATGKPYKSDYLAILNWVVKRIKEE | 0.077
22 | HMPELFLFNPDTASAATFQALGFSARQAGVLIHFREALGGRFGSVEQFSKSYVVDSATLERLRPYMVF | -0.029
23 | HMPEMHIYTKEGKIHITHIDENEEIKIYNPLGQIIYTGSPQDIPVLEGKGLYIIYIGKSAVEVLES | -0.624
24 | HMPENESPEEKHARFRRFAEGLMARLDENESVRDILPELKVWLDDRELDRDDQRLARNLMLTAGKRE | -0.0664
25 | HMPEPLTARETEVLRLLSGGYSNREIAAAMFLAEGTIKNHVSAVLLKLGVRDRTRAVLRGLELGLIQ | -1.4
26 | HMPEPPRVGETLAALRQDRALSLDELSRQAGVSKSMLSQIERNQANPTVAVVWRLANALGVPMAELLGA | -0.192

Row | Sequence | soluble fraction (log2)
27 | HMPGDIRKAAILLMSLPREQAAQVLARLDPKQVEAVTIEIARLGTVTPDEQEQALKEFSQANPA | -0.141
28 | HMPGIDDAAVEHAERVLAQHIGPMARLLVRRTVPRAANLFDLHRRLGALIPESEPRTAFLSAVVT | 0.0209
29 | HMPGLSQAEAQSLLIAYLAQQGRTLELIPLGQSGDVWRFSGRESDGTVVSFFMVSRTDGTISEVPVPP | -0.992
30 | HMPGRLSRREVEVIELTARGLPAAEMAVRLGISANTIEFHRRRIMQKLGVANAAEMVRRATELGW | -0.905
31 | HMPGRVITVMVNGKRVDLPFREEPYIFVDLFRYMDFDVERARGRIQLAINGKKAGYTDIIREGDSIEI | -1.02
32 | HMPGTAAQARQLKAWLKENGEKPGAALPALQKAQEIYGYVPREVQQLIADALHKPLTEIYGVSTFYSQFNL | -0.326
33 | HMPGTPADQVAELQTKVGTETKTGDMITQDDVKLLQTALDPLAKMNDRIQAAKILESKGIVTSDGNLRT | 0.0934
34 | HMPIGENIKRLRIMHGLSQKELAQIAGVSDKAVSTWENGTKEPRMGAVQKITGYFGLKKSNLIEDNGL | 0.0537
35 | HMPIMDSDDKYEALGIPQEWIAVVKKAGYQTVEALKAVENPNKLHQELSVMNKKEKLGLAGLTPEMVKAWL | -0.301
36 | HMPINPKVKQIYDTLKDGGADVGSEKEFNDYFFAKGKDGYNNRKEVFNTLREGGADAGKSYEEFAGWLGL | 0.206
37 | HMPIPIESEISRSPGQSIYAFVQQHYGRSGRSPADMRALVGLILRLNRQIRTPLLIPFGLVVVRPT | -0.253
38 | HMPIRVGDAFESLAGVFPDEYNKALRKSTKKPVFFVPVKVEAGSGALRQKGKITFIVKDGRIDAIQIAL | -0.514
39 | HMPISQGATVKHNANMRKGASTKYKVTGVLQEGEEVKILSQSNGWYKIQNSDNEKGWTYNTHINASDK | -0.0274
40 | HMPKHFIDFSEGEVVSITDGPFKGFDGAISEIDNQKGKVKVMVSMFGRDTSVELDALQVKKV | -0.364
41 | HMPKITTIHIDPEKISKVIGPGGKTVKKIIEETGAKIDIEDTGKIFIAAVNTEAANKAIDMINGIVA | -0.0168
42 | HMPKLPIIYVLDGHVNKNALTTSGKNKVWIEHELKKHHINSIKDVLIAMTDTEGKFYYQLYD | -0.0791
43 | HMPKLSNNHMAVWQAIRSRTAKGEPSTRAVIRDDLKAAGMDTSKHFSRWLTKLIDLGMVVKDGENLSIR | 0.219
44 | HMPKMISPAQIKAIGAKTNNIAKASGVEQAQVYQSAVAHLGINNKSTKELTSQEASKVIEYLSTL | 0.158
45 | HMPKPMKATKITLQQEPRIRVDFTYDPLKVQQIKTISGARWSKSLKAWHIPYTKEAFNQLKKLFPNVEIEV | 0.22
46 | HMPKSVRQSFVYSPMYRDVEYLADFLRNNNKDDSSVSASGDKLVYYGTADEIARVKSVLKGVDV | -0.51
47 | HMPLIPIAIELARHALPSLIGAIAGDKSEKVAKEVVDAALKTTGKTTPDEALHALQADPQLAHEYRLSLL | -0.466
48 | HMPLKLIDVYLGRHGKKRYDVFKETGLSQQTLASANGKPAAALTGRILQAIGRTVGETPGRVLDEMLMIEQ | 0.0887
49 | HMPLLADLPNLLRKVLKQHPGRVVDVDLERGRQGREIYHVRVLQENGQVRGLFVDASTGELVS | 0.0524
50 | HMPLQLPEPMAELARNGETARLAEALKQGLDIDLRDGKGNTLLMIAAYQGRAETVAMLLKAGA | -1.42
51 | HMPLSLESVSEGGRNDTAARIAGYLIAKGLNVDFARFFLQSWNTKNKPPLDDTEIDTIVNSIMKTHERKNQ | -0.476
52 | HMPLTPATADAGRFVKQDRKYIRLLAKRYNFTHGDIKSEIDRVSAVLSSNGIDRVPLFLYKEYLEQYLAG | -0.924

Row | Sequence | soluble fraction (log2)
53 | HMPLTRSDVKRIQLWLMAHGYDIGSPDGVFGDKSNRAANAFLSQQGRSLETVTLGKLYDILEAN | -0.941
54 | HMPMINLYQRLNLPPTASRAEIEAALAQYRSELSTAEIRGVQEWLLVNEVRHRYDAKLRQEQPSFFI | -0.427
55 | HMPMTLGENIARLRTQKDWSQGDLADALGISRQSISKWETDTSIPELEKLIKLSELFGVTLDQLVRGE | -0.615
56 | HMPNILLSVKDASVAISVSSKMVRLLIASGRLKAVNLGKRMTRISLQELTDFAQRQGGNVVLP | -0.514
57 | HMPNLAAAIGARVTIRLREASGGFRDIVGTLQRFGDGVNELLNSKGQIISFSEDEIAIWREIK | -0.326
58 | HMPNQIKQIAVNTASVSDIATIPGISFDFAKEIWEFRILRQKIGSLSELQKIEGMTASKYALIELYLHI | -0.41
59 | HMPNSIKAPAYLHNIARIYDHVLIDVEKASSAYEKLIKKYPNHPLSINAKLYLENAFNRSDEELLNMIKEN | -0.624
60 | HMPNYVEMLRLHEAGFSLRQIAKLVSSGRNTVTRTVNIAQEKELSYEEIAQWSSEELENMFKPD | -0.515
61 | HMPPDIKVVGVTVASDPRASFAMLSSNGKTLSYRVNDLIEGTEYHLIKVEAAAITIATAGGQSTQIAF | -0.156
62 | HMPPFTYHLERAKRKTVGFIVDERGVTVRAPRWVSVSEIEKMLQTKEAWIQKKLTEFHNWQKE | 0.111
63 | HMPPHGHIVELLPEQDFGRIETGDGRLVYFHRNSVLDGDFAQLAVGDAVRFAEEMGERGPQASSVHVE | -0.948
64 | HMPPLKYLKVKSYLEAVAVKAESAMRMPTVRELMNQFNVSLATVNRALSELENDGVIVRRQGSGIVAAG | ≥ 0.43
65 | HMPPSGPWEQDPPSEAQLKPFNEAMKRTADIDVDLYEKAKKALNDGTITKGNIYDWINREDSPWVLQDGS | -0.468
66 | HMPPSQRVNRILSLAGITSRRKADEYILEGRVTVNGEVLKEPGAKAVWGTDDIRVDGKPIPALS | 0.275
67 | HMPPSVAETLKRLRRHKSLSLEELAQMSGVSRSMLSQIERDATNPTVATLWRITAALGVSIDEVLGV | -0.893
68 | HMPPTEQVYRSHVPPQYDGFPIEKYFTTRFSYQDVEEWSRQILAGKIEVNGKTALIGQILSASDLTVTRA | -0.811
69 | HMPQETPIPKSEIQSYDEIWLEPISTDNILRNELRGWYHVKDRWVENEFGNRFYLDTYASKWLAFPS | -0.752
70 | HMPQKIVIQKGVVIKKRERSDAWQIYITVKGKKPIRKSANTDNVEKAKQMALTLFAEKNYKVENNLPIQ | -0.0334
71 | HMPQLSNEEQKIVDALEGSDGKQINLITVETNIPMARLMSVLFEMEMRGIVKSLNGARYKLN | -0.026
72 | HMPQTDDSEPLGKYGRMRLAYLKNQRPVLYNQMLLNGTLWPHLQDVQKTAYEWLERTMTTLLDK | -0.581
73 | HMPRDQQENIYLLEKGKRLYEEHLGDQRQIIGHRIMIFERILESQDHAQIRRAQSEFAEFLSHYDG | 0.111
74 | HMPRDYYAVLEVSVSSTPVQIRQAYQRLARRYSPDVNFLDRDTEALFEEIVEAYRVLSNPTARTLYDRG | -3.04
75 | HMPREQQENVYLLEKAKRLYEEYLGDQRQTIGHALAQFERVLESQDPAAIRRAQKEFGEFLERYDG | -0.139
76 | HMPREVKLPPDLLDALEASPEAKAFFLQLSYTHQKEYAQWIEEAKQEATRQRRLEKTVQMLLEGRRT | -0.0407
